In US20260183405A1, “SMALL MOLECULE-DRUG-CONJUGATES CLEAVABLE IN A TUMOR MICROENVIRONMENT” (priority 2022, published 2026):
Where two headings read alike, the source gives them in different places.

What was measured:
Stability in rat plasma = assay type: in vitro ADME; settings: 37° C., percent area of the initial compound at t0 (HPLC), read-out: Stability rat plasma after 4 h
Description: (§1) 1 mg of the respective test compound of is dissolved in a mixture of 1.5 mL dimethylsulfoxide and 1 ml water. For complete dissolution, the HPLC vial is shaken and treated with an ultrasound. 500 μl of this solution is added to 0.5 mL of plasma with vortexing at a temperature of 37° C. Aliquots (10 μL each) are taken at respective time points and analyzed by HPLC to determine the amount of the test compound. All data is given as percent area of the initial compound at to.

[1] = Stability in human plasma; assay type: in vitro ADME; settings: 37° C., percent area of the initial compound at t0 (HPLC), read-out: Stability human plasma after 4 h
Description: as §1

[2] = Pharmacokinetics in rat after intravenous administration; assay type: in vivo; settings: plasma, male rats, intravenous bolus 0.5 mg/kg; for clearance: read-out: CL plasma; for Vd: read-out: VSS
Description: Male rats (n=3) were given an intravenous 0.5 mg/kg bolus dose of test article dissolved in plasma with 1% DMSO and 2% ethanol. Serial blood samples were collected up to 24 hours post-dose. Plasma was harvested from blood samples and stored frozen until sample analysis. Test article plasma concentrations were analyzed by LC/MS/MS. Pharmacokinetic parameters were calculated using non-compartmental analysis.

Stability in buffer = assay type: physicochemical; settings: HPLC peak area in percentage
Description: 0.15 mg of the test compound are solved in 0.1 ml dimethylsulfoxide and 0.4 ml acetonitrile. For complete dissolution the HPLC vial with the sample solution is shaken and sonicated. Then 1.0 ml of the respective buffer solution is added, and the sample is vortexed. The sample solution is analysed by HPLC to determine the amount of the test compound and up to two byproducts at a particular time over a period of 24 h at 37° C. to values result from a sample immediately taken after vortexing with buffer at RT. The peak areas (in percentage) are used for quantification.

human Elastase = biological target: T1, human Elastase (Homo sapiens, UniProt P08246); test: Elastase cleavability test; assay type: biochemical; settings: 5 μM test compound, 1 h at 37° C.
T1 sequence (P08246 30-267): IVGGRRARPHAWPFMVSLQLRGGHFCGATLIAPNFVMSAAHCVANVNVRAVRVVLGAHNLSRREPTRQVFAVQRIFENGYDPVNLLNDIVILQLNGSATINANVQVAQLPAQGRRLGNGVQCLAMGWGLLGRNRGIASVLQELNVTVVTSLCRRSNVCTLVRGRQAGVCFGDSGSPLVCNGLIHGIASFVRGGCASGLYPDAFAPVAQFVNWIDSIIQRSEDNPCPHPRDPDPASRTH
Description: The test compound was added to buffer (150 mM NaCl, 10 mM CaCl2, 0.05% BSA) to a final concentration of 5 μM (0.5% DMSO). The reaction was started by adding different concentrations of human Elastase (0, 20, 40, 60 nM) to the reaction vials. After incubation for 1 h at 37° C., the enzymatic reaction was stopped by precipitation in 50% ACN. Subsequently, the samples were subjected to HPLC-MS analysis to determine the concentration of test compound and of its metabolite.

786-O = test: Cytotoxicity in vitro in the presence and absence of elastase (MTT assay); assay type: cell-based; settings: 786-O cells, 72 h incubation
Method in brief: (§2)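 Two matched triplicate sets were dosed 24 h post-seeding, one with compound only and one with compound plus 10 nM NE, over 10^−5 to 10^−13 M for 72 h. Proliferation was measured by MTT at 570 nm. In the automated version, AC50 came from a 4-parameter Hill fit, normalized to cell-free medium (−100%) and DMSO (0%).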

SUM149PT = test: as above; assay type: cell-based; settings: SUM149PT cells, 72 h incubation
Method in brief: as §2

NCI-H292 = test: as above; assay type: cell-based; settings: NCI-H292 cells, 72 h incubation
Method in brief: as §2

HT29 = test: as above; assay type: cell-based; settings: HT29 cells, 72 h incubation
Method in brief: as §2

[3] = buffer pH 4, 37° C., read-out: Stability buffer pH 4 after 24 h
[4] = compound alone, read-out: IC50 without neutrophil elastase
[5] = with 10 nM elastase (NE), read-out: IC50 with neutrophil elastase
[6] = buffer pH 7.4, 37° C., read-out: Stability buffer pH 7.4 after 24 h

Row | SMILES | remaining at 4 h, 0.2 mg/mL (Stability in rat plasma) [%] | remaining at 4 h, 0.2 mg/mL [1] [%] | AUC [2] [ng·h/mL] | half-life [2] [h] | clearance [2] [mL/min/kg] | Vd [2] [L/kg] | remaining at 24 h, 0.1 mg/mL (Stability in buffer; [3]) [%] | Stability buffer pH 7.4 after 24 h (Stability in buffer; buffer pH 7.4, 37° C.) [%] | Payload release after 1 h (human Elastase; Elastase Concentration 0 nM) | Payload release after 1 h (human Elastase; Elastase Concentration 20 nM) | IC50 (786-O; [4]) [nM] | IC50 (786-O; [5]) [nM] | IC50 (SUM149PT; [4]) [nM] | IC50 (SUM149PT; [5]) [nM] | IC50 (NCI-H292; [4]) [nM] | IC50 (NCI-H292; [5]) [nM] | IC50 (HT29; [4]) [nM] | IC50 (HT29; [5]) [nM] | remaining at 24 h, 0.1 mg/mL (Stability in buffer; [6]) [%]
1 | CCCNC(=O)Nc1cccc(S(=O)(=O)Nc2cccc([C@@H](CC(=O)O)NC(=O)Nc3ccc(NC(=O)NCCOCCOCCOCCC(=O)N[C@@H](CC(N)=O)C(=O)N4CCC[C@H]4C(=O)N[C@H](C(=O)NCCCN(C(=O)CO)[C@@H](c4cc(-c5cc(F)ccc5F)cn4Cc4ccccc4)C(C)(C)C)C(C)C)cc3)c2)c1 [Compound 17, sodium N^2-(14-{4-[({(1R)-2-carboxylato-1-[3-({3-[(propylcarbamoyl)amino]benzene-1-sulfonyl}amino)phenyl]ethyl}carbamoyl)amino]anilino}-14-oxo-4,7,10-trioxa-13-azatetradecanan-1-oyl)-L-asparaginyl-L-prolyl-N-{3-[{(1R)-1-[1-benzyl-4-(2,5-difluorophenyl)-1H-pyrrol-2-yl]-2,2-dimethylpropyl}(hydroxyacetyl)amino]propyl}-L-valinamide] | 100 | 100 | 1000 to 10000 | 5 to 10 | 0.5 to 5 | 0.3 to 0.9 | 100 | 100 | D (D = <1%) | C (C = >1%) | > 1000 | 1 to 9.9 | 100 to 999 | 0.1 to 1 | 100 to 999 | 1 to 9.9 | > 1000 | 1 to 9.9 | 
2 | CCCNC(=O)Nc1cccc(S(=O)(=O)Nc2cccc([C@@H](CC(=O)O)NC(=O)Nc3ccc(NC(=O)NCCOCCOCCOCCC(=O)N[C@@H](CC(=O)O)C(=O)N4CCC[C@H]4C(=O)N[C@H](C(=O)N[C@@H](CCN(C(=O)CO)[C@@H](c4cc(-c5cc(F)ccc5F)cn4Cc4ccccc4)C(C)(C)C)C(=O)NC)C(C)C)cc3)c2)c1 [Compound 26, disodium 1-[(2S)-2-(carboxylatomethyl)-17-{4-[({(1R)-2-carboxylato-1-[3-({3-[(propylcarbamoyl)amino]benzene-1-sulfonyl}amino)phenyl]ethyl}carbamoyl)amino]anilino}-4,17-dioxo-7,10,13-trioxa-3,16-diazaheptadecanan-1-oyl]-L-prolyl-N-[(2S)-4-[{(1R)-1-[1-benzyl-4-(2,5-difluorophenyl)-1H-pyrrol-2-yl]-2,2-dimethylpropyl}(hydroxyacetyl)amino]-1-(methylamino)-1-oxobutan-2-yl]-L-valinamide] | 100 | 100 | 1000 to 10000 | < 0.5 | 0.5 to 5 | 0.01 to 0.1 | 94 |  | D (D = <1%) | B (B = >20%) |  |  | > 1000 | 0.1 to 1 | > 1000 | 1 to 9.9 | > 1000 | 1 to 9.9 | 100
3 | CCCNC(=O)Nc1cccc(S(=O)(=O)Nc2cccc([C@@H](CC(=O)O)NC(=O)Nc3ccc(NC(=O)NCCOCCOCCOCCC(=O)N[C@@H](CC(=O)O)C(=O)N4CCC[C@H]4C(=O)N[C@H](C(=O)O[C@@H](c4ccccc4)[C@@H](C)NC(=O)[C@H](C)C(OC)[C@@H]4CCCN4C(=O)CC(OC)[C@H]([C@@H](C)CC)N(C)C(=O)[C@@H](NC(=O)[C@@H](NC)C(C)C)C(C)C)C(C)C)cc3)c2)c1 (some centres unmarked) [Compound 13] | 100 | 100 | 1000 to 10000 | 1 to 5 | 0.5 to 5 | 0.1 to 0.3 | 92 |  | D (D = <1%) | A (A = >70%) |  |  |  |  |  |  |  |  | 100
